# From patent publication US12013397B2, “Compositions and methods for determining cancer prognosis” (CASE WESTERN RESERVE UNIVERSITY, priority 2019, dated 2024)
# Ends that are not written are not given here. Texas Red = Texas Red fluorescent dye
# Experiments:
# GBM tissue = details: cited from earlier work
# PTPμ biomarker = target: T1, PTPμ biomarker (Homo sapiens, UniProt P28827); assay: SBK4-TR staining of human gynecologic cancer, normal and PDX tissue (Image J quantification); assay type: binding
# T1 construct: from tissue; host or cells: formalin-fixed, paraffin-embedded human gynecologic cancer and normal tissue, and patient-derived xenograft sections
# Text: The SBK4 peptide used for tissue staining was synthesized as described. The N-terminal glycine of SBK4 peptide was coupled to Texas Red (TR; Molecular Probes Inc, Eugene, Oreg., USA) as described to make the fluorescent agent. Anti-p53 Monoclonal or Ki-67 antibodies were used to counterstain tissue sections, to indicate nuclear staining of p53 typical in high-grade serous ovarian carcinoma.
# All samples used for this study were obtained from the Difeo and Avril labs. The Avril group generated tissue microarrays of several gynecologic cancers (TMAs) to facilitate screening a large number of patient biopsy tissues. The Difeo lab generated TMAs that included sections from patient derived xenografts (PDXs) matched to original patient tumor tissue sections. Additional individual biopsy and normal tissue samples were stained as individual slides. Together, these TMAs and slides represented samples from 73 patients (49 with gynecologic cancer, 22 sections from patients without cancer, and 2 patients with gynecologic cancer tissue and control tissue samples collected). The following gynecologic cancer types were represented in the dataset: endometrial clear cell carcinoma (n=3), endometrial endometrioid carcinoma (n=18), endometrial high-grade serous carcinoma (n =6), endometrial leiomyosarcoma (n=1), endometrial undifferentiated carcinoma (n=1), endometrial undifferentiated sarcoma (n=1), neuroendocrine tumor of the uterus (small cell) (n=1), ovarian carcinosarcoma (n=1), ovarian borderline serous (n=1), ovarian high-grade villoglandular carcinoma (n=1), ovarian high-grade serous carcinoma (n=16), ovarian endometrioid carcinoma (n=1).
# Tissue staining with SBK4-TR was described. Positive controls (GBM) and negative controls (Epilepsy) were tested with the TMAs or individual slides. Tumor samples were obtained formalin-fixed and paraffin-embedded. Prior to staining, the TMAs or slides were deparaffinized and blocked with 2% goat serum in phosphate buffered saline (PBS) for 20 min at room temperature (RT). The samples were then incubated with SBK4-TR agent diluted in 2% goat serum in PBS at RT for 1 hr in the dark. Following a PBS rinse, the TMAs or slides were coverslipped with Vectashield Hard Set Mounting Medium (Vector Laboratories, Inc., Burlingame, Calif., USA) and imaged on a Hamamatsu Nanozoomer S60 slide scanner (Bridgewater, N.J., USA). Some samples were also stained for the IDH1 mutation. Tissue staining for both PTPμ was quantified using Image J.
# [1] = target: T2, proteolytically cleaved extracellular fragments of PTPμ (Homo sapiens, UniProt P28827); assay: SBK4-TR staining of human glioma tissue microarrays and slides; assay type: binding
# T2 construct: from tissue; host or cells: formalin-fixed, paraffin-embedded human glioma patient tumor tissue (TMAs and slides)
# T2 sequence (P28827 21-742 limits assumed): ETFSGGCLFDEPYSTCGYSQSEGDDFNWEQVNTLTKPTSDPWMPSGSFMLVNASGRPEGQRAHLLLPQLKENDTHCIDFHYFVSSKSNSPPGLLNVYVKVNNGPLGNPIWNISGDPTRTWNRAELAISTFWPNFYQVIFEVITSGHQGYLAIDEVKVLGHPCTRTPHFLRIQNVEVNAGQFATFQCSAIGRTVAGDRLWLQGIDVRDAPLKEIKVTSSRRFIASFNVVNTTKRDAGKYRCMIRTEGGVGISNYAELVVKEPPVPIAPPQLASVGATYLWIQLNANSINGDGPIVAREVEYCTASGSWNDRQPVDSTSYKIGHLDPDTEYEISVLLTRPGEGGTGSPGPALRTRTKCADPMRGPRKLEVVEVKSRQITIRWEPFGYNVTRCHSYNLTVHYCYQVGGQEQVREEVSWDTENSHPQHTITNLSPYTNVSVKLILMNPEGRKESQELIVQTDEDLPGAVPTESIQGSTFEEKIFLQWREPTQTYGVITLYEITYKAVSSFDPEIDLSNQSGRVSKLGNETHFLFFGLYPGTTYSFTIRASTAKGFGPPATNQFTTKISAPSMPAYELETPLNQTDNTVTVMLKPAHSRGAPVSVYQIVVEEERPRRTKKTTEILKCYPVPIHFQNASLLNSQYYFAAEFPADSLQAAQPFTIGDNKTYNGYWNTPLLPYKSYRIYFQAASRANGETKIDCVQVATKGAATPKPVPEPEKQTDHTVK
# Text: The SBK4 peptide used for immunohistochemistry was synthesized as described. The N-terminal glycine of SBK4 peptide was coupled to Texas Red (TR; Molecular Probes Inc, Eugene Oreg.) as described to make the fluorescent agent. Anti-IDH1 R132H Monoclonal Antibody clone H09 (American Research Products [Dianova GmbH], Waltham, Mass.) reacts specifically with the isocitrate dehydrogenase 1 (IDH1) R132H point mutation in tissue sections from formalin-fixed brain tumor specimens.
# Patient tumor samples were obtained, formalin-fixed, and paraffin-embedded for analysis. Some samples were incorporated into tissue microarrays (TMAs) and some samples were placed on individual slides. Together, these TMAs and slides represented samples from 94 glioma patients (25 adolescent and young adult and 69 adult) with astrocytomas (n=12), oligodendroglioma (n=14), oligoastrocytoma (n=7), and GBM (n=61). Tissue staining with SBK4-TR has been described. […] Antibody binding was detected using MACH4 horseradish peroxidase (Biocare, Pacheco, Calif.) and diaminobenzidine was used as chromogenic substrate. […]
# Tissue staining intensity for both PTPμ and IDH1 biomarkers was quantified by blinded observers. […] For IDH1, samples were scored as either positive for the mutation or negative as it is done clinically.
# T1 sequence (P28827 21-1452): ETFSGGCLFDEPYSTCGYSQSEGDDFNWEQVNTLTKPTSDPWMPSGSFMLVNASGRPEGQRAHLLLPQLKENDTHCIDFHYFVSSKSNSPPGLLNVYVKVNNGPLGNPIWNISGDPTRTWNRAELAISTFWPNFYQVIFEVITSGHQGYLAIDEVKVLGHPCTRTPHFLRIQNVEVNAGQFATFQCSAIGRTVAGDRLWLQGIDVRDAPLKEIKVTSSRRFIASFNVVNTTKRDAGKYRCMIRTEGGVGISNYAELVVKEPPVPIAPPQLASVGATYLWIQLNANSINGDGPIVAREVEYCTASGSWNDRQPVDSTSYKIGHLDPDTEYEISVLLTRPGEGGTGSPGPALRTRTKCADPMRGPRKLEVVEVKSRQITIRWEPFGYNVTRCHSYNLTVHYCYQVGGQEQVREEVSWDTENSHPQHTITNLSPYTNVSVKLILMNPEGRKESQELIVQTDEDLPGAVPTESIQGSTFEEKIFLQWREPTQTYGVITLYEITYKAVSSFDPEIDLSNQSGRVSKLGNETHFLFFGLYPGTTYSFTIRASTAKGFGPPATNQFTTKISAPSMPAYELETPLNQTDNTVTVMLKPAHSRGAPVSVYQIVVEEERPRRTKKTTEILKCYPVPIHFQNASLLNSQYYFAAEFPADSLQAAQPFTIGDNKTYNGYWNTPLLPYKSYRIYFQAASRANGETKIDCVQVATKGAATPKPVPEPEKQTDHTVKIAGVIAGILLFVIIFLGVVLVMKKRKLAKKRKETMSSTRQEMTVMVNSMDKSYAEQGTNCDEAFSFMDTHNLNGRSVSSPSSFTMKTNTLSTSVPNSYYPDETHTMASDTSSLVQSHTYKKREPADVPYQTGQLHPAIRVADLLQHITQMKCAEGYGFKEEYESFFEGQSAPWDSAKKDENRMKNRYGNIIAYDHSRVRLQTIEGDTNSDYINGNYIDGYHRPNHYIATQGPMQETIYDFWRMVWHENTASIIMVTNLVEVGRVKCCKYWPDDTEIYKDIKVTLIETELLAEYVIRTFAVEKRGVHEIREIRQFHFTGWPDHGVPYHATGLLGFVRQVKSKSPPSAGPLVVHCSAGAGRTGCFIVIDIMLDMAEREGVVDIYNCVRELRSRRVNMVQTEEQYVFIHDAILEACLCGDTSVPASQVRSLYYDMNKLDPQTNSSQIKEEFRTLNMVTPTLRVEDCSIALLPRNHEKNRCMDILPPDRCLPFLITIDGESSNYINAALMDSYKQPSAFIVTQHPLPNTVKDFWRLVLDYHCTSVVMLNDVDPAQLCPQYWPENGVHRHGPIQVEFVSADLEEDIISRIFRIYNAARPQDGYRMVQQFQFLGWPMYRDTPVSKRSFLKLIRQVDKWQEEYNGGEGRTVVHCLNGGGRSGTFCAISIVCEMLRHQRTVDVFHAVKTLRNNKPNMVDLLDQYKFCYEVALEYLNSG
staining observed within the TMAs (PTPμ biomarker; gynecologic cancer TMAs),"PTPμ staining of the tumor samples ([1]; formalin-fixed paraffin-embedded glioma samples, fluorescent microscope)",Compound,labeling the dispersive GBM tumor border (GBM tissue; in vivo),six month progression-free survival (GBM tissue; surgical resection of GBM),"extent of tumor resection (GBM tissue; surgical resection of GBM, versus 36% with white light alone) [%]","SBK4-TR staining of tumor tissue compared to control tissue (PTPμ biomarker; endometrial endometrioid cancer, high-grade serous endometrial carcinoma, endometrial clear cell carcinoma, small sample sizes)",SBK4-TR labeling of tumor tissue compared to normal tissue (PTPμ biomarker; high-grade serous ovarian carcinoma vs normal ovary or normal fallopian tube),"SBK4-TR labeling of PDX tissue compared to original patient tumor tissue (PTPμ biomarker; matched patient tumor and PDX tumors, all samples)",correspondence of sites of high SBK4-TR labeling with p53 and Ki-67 staining (PTPμ biomarker; patient with multiple lesions),labeling of glioma tissue by grade ([1]; low- and high-grade glioma tissue)
–,–,"NCC(=O)CCC(=O)O [5-ALA, 5-aminolevulinic acid]",less effective,improvement,65,–,–,–,–,–
varied amongst individual patients,variable PTPμ staining,SBK4-TR: SBK4 peptide (SEQ ID NO: 7) conjugated to Texas Red ({Texas Red}-GIDVRDAPLKEIKVTSSR),–,–,–,did not have statistically significantly higher SBK4-TR staining than control tissue,statistically significantly higher staining,PDX tissue had higher levels of SBK4-TR labeling than the original patient tumor tissue,correspond to areas of high p53 and Ki-67 staining,labels both low- and high-grade glioma tissue
